Data from patent US20250376519A1 (JIANGSU HENGRUI PHARMACEUTICALS, published 2025).

T1: human DLL3 on cells (human, UniProt Q9NYJ7 27-618)
T1 construct: Endogenous on H1184 and SHP77; Cell line is named under assay; also called H1184; DLL3/H82
T1 sequence: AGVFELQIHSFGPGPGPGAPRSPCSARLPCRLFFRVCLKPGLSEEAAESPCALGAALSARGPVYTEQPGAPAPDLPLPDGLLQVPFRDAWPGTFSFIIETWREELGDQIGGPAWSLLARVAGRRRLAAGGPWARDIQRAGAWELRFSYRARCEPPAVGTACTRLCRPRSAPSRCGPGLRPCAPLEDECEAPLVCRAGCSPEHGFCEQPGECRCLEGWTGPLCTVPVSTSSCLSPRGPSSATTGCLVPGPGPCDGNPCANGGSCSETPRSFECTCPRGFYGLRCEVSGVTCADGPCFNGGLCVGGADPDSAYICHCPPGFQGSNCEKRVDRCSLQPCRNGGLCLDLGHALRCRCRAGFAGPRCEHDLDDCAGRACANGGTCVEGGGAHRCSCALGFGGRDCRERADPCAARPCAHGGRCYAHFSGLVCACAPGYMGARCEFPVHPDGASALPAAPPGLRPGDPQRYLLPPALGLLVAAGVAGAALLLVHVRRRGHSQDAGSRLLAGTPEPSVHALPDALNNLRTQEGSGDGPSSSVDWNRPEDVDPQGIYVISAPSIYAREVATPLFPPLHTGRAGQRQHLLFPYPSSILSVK

T2: human DLL3 (ACRO, DLL3-H52H4) (human, UniProt Q9NYJ7 27-492)
T2 construct: Bought
T2 sequence: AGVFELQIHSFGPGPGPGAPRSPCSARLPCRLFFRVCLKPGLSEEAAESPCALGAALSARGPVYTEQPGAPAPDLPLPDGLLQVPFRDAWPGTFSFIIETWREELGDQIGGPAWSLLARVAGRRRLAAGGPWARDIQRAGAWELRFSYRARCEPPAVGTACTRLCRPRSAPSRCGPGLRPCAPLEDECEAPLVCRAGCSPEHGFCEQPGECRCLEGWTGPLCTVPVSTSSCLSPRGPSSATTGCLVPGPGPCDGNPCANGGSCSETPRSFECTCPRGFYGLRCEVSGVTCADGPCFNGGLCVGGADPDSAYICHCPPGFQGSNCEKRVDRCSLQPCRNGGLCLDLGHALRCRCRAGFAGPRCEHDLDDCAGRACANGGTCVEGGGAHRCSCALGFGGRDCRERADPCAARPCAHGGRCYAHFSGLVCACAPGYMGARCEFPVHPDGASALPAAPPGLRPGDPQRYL


Tests used:
human DLL3 on cells = target: T1, human DLL3 on cells; assay: flow cytometry, H1184 cells
Procedure: The plates were centrifuged at 300 g for 5 min, and the supernatant was removed. Different concentrations of test antibodies were added at 100 μL/well. The plates were incubated in the dark in a refrigerator at 4° C. for 1 h. After 3 centrifugal washes at 300 g, working concentrations of APC anti-human IgG Fc (BioLegend, 410712) or PE F(ab′)2-goat anti-human IgG (invitrogen, H10104) were added. The plates were incubated in the dark in a refrigerator at 4° C. for 40 min. After 3 centrifugal washes at 300 g, the geometric mean fluorescence intensity was measured on an Invitrogen flow cytometer, and the EC50 values for the binding of the antibodies to DLL3-expressing cells were calculated.

[1] = target: T2, human DLL3 (ACRO, DLL3-H52H4); assay: SPR Biacore 8K, Ab captured on Protein A
Source text: Test antibodies were affinity-captured with a Protein A biosensor chip (Cat. #29127556, Cytiva) for 18 seconds, and then the antigens human DLL3 (ACRO, DLL3-H52H4), cynomolgus monkey DLL3 (KACTUS, DLL-RM103), mouse DLL3 (KACTUS, DLL-MM103), human CD3D&3E (ACRO, CDD-H52W1), and monkey CD3D&3E (ACRO, CDD-C52W4) were allowed to flow through the surface of the chip for 180 seconds, followed by 600 seconds of dissociation. Reaction signals were detected in real time using a Biacore 8K (Cytiva) instrument to obtain association and dissociation curves. After the dissociation in each experimental cycle, the chip was washed and regenerated with a 10 mM glycine-hydrochloric acid solution (pH 1.5, Cat. #BR-1003-54, Cytiva). Data fitting was performed using a 1:1 Model.

Binder | Emax (human DLL3 on cells) | Kd [1] | koff [1] | kon [1] | EC50 (human DLL3 on cells)
hu98L2H2 (antibody, human IgG1, kappa, V domains shown) VH: EVQLVESGGGLVQPGGSLRLSCAASGFTFSDYGIHWVRQAPGKGLEWVAYISSGGYTIYYADTVKGRFTISRDNAKNSLYLQMNSLRAEDTAVYYCARGDYEDIFYTMDYWGQGTTVTVSS VL: DIQMTQSPSSLSASVGDRVTITCRASRDITKFLNWYQQKPGKAVKLLIYYTSRLHSGVPSRFSGSGSGTDYTLTISSLQPEDFATYYCQQGNTLPWTFGGGTKVEIKR | 2310 | 0.55 nM | 0.000668 s⁻¹ | 1.22e+06 M⁻¹ s⁻¹ | –
hu98L1H1 (antibody, human IgG1, kappa, V domains shown) VH: EVQLVESGGGLVQPGGSLRLSCAASGFTFSDYGIHWVRQAPGKGLEWVAYISSGGYTIYYADTVKGRFTISRDNAKNSLYLQMNSLRAEDTAVYYCARGDYDDIFYTMDYWGQGTTVTVSS VL: DIQMTQSPSSLSASVGDRVTITCRASRDITKFLNWYQQKPGKAPKLLIYYTSRLHSGVPSRFSGSGSGTDFTLTISSLQPEDFATYYCQQGNTLPWTFGGGTKVEIKR | 2820 | 1.1 nM | 0.00171 s⁻¹ | 1.55e+06 M⁻¹ s⁻¹ | –
hu6L2H2 (antibody, human IgG1, kappa, V domains shown) VH: EVQLVQSGAEVKKPGASVKVSCKASGYTFTDYYMNWVRQAPGQRLEWMGIINPYSGVTIYNHKFKGRVTLTVDKSANTAYMELSSLRSEDTAVYYCARQDSLLDYAMDYWGQGTTVTVSS VL: DIQMTQSPSSLSASVGDRVTITCHASQGISGNMGWLQQKPGKAPKGLIYHGANLEDGVPSRFSGSGSGADYTLTISSLQPEDFATYYCVQYAQFPYTFGGGTKVEIKR | 2190 | 1.64 nM | 0.00116 s⁻¹ | 704000 M⁻¹ s⁻¹ | 0.06 nM
hu6L2H7 (antibody, human IgG1, kappa, V domains shown) VH: EVQLVESGGGLVQPGGSLKLSCAASGYTFTDYYMNWVRQASGKGLEWVGIINPYSGVTIYNHKFKGRFTLSVDKSKNTAYLQMNSLKTEDTAVYYCARQDSLLDYAMDYWGQGTTVTVSS VL: DIQMTQSPSSLSASVGDRVTITCHASQGISGNMGWLQQKPGKAPKGLIYHGANLEDGVPSRFSGSGSGADYTLTISSLQPEDFATYYCVQYAQFPYTFGGGTKVEIKR | 2200 | 3.06 nM | 0.00205 s⁻¹ | 670000 M⁻¹ s⁻¹ | 0.07 nM
hu6L2H6 (antibody, human IgG1, kappa, V domains shown) VH: EVQLVQSGSELKKPGASVKVSCKASGYTFTDYYMNWVRQAPGQGLEWMGIINPYSGVTIYNHKFKGRFVLSVDKSSNTAYLQISSLKAEDTAVYYCARQDSLLDYAMDYWGQGTTVTVSS VL: DIQMTQSPSSLSASVGDRVTITCHASQGISGNMGWLQQKPGKAPKGLIYHGANLEDGVPSRFSGSGSGADYTLTISSLQPEDFATYYCVQYAQFPYTFGGGTKVEIKR | 2420 | 0.877 nM | 0.000756 s⁻¹ | 863000 M⁻¹ s⁻¹ | 0.05 nM
hu6L2H12 (antibody, human IgG1, kappa, V domains shown) VH: EVQLVQSGSELKKPGASVKVSCKASGYTFTDYYMNWVRQAPGQGLEWMGIINPYSGVTIYNHKFKGRFALSVDKSSNTAYLQISSLKAEDTAVYYCARQDSLLDYAMDYWGQGTTVTVSS VL: DIQMTQSPSSLSASVGDRVTITCHASQGISGNMGWLQQKPGKAPKGLIYHGANLEDGVPSRFSGSGSGADYTLTISSLQPEDFATYYCVQYAQFPYTFGGGTKVEIKR | 2140 | 0.461 nM | 0.000913 s⁻¹ | 1.98e+06 M⁻¹ s⁻¹ | 0.1 nM
hu6L4H13 (antibody, human IgG1, kappa, V domains shown, also called hu6L4VH13) VH: EVQLVQSGSELKKPGASVKVSCKASGYTFTDYYMNWVKQAPGQGLEWMGIINPYSGVTIYNHKFKGRFALSVDKSSNTAYLQISSLKAEDTAVYYCARQDSLLDYAMDYWGQGTTVTVSS VL: DIQMTQSPSSLSASVGDRVTITCHASQGISGNMGWLQQKPGKAPKGLIYHGANLEDGVPSRFSGSGSGADYTLTISSLQPEDFADYYCVQYAQFPYTFGGGTKVEIKR | 2120 | 0.322 nM | 0.000695 s⁻¹ | 2.16e+06 M⁻¹ s⁻¹ | 0.09 nM
hu6L4H12 (antibody, human IgG1, kappa, V domains shown) VH: EVQLVQSGSELKKPGASVKVSCKASGYTFTDYYMNWVRQAPGQGLEWMGIINPYSGVTIYNHKFKGRFALSVDKSSNTAYLQISSLKAEDTAVYYCARQDSLLDYAMDYWGQGTTVTVSS VL: DIQMTQSPSSLSASVGDRVTITCHASQGISGNMGWLQQKPGKAPKGLIYHGANLEDGVPSRFSGSGSGADYTLTISSLQPEDFADYYCVQYAQFPYTFGGGTKVEIKR | 2130 | 0.391 nM | 0.000805 s⁻¹ | 2.06e+06 M⁻¹ s⁻¹ | 0.05 nM
hu6L2H13 (antibody, human IgG1, kappa, V domains shown) VH: EVQLVQSGSELKKPGASVKVSCKASGYTFTDYYMNWVKQAPGQGLEWMGIINPYSGVTIYNHKFKGRFALSVDKSSNTAYLQISSLKAEDTAVYYCARQDSLLDYAMDYWGQGTTVTVSS VL: DIQMTQSPSSLSASVGDRVTITCHASQGISGNMGWLQQKPGKAPKGLIYHGANLEDGVPSRFSGSGSGADYTLTISSLQPEDFATYYCVQYAQFPYTFGGGTKVEIKR | 2100 | 0.382 nM | 0.000803 s⁻¹ | 2.1e+06 M⁻¹ s⁻¹ | 0.1 nM
hu6L4H4 (antibody, human IgG1, kappa, V domains shown) VH: EVQLVQSGAEVKKPGASVKVSCKASGYTFTDYYMNWVRQAPGKRLEWMGIINPYSGVTIYNHKFKGRVTLTVDKSANTAYMELSSLRSEDTAVYYCARQDSLLDYAMDYWGQGTTVTVSS VL: DIQMTQSPSSLSASVGDRVTITCHASQGISGNMGWLQQKPGKAPKGLIYHGANLEDGVPSRFSGSGSGADYTLTISSLQPEDFADYYCVQYAQFPYTFGGGTKVEIKR | 2310 | 1.45 nM | 0.00108 s⁻¹ | 743000 M⁻¹ s⁻¹ | 0.06 nM
hu6L2H5 (antibody, human IgG1, kappa, V domains shown) VH: EVQLVQSGSELKKPGASVKVSCKASGYTFTDYYMNWVRQAPGQGLEWMGIINPYSGVTIYNHKFKGRFVLSVDKSVSTAYLQISSLKAEDTAVYYCARQDSLLDYAMDYWGQGTTVTVSS VL: DIQMTQSPSSLSASVGDRVTITCHASQGISGNMGWLQQKPGKAPKGLIYHGANLEDGVPSRFSGSGSGADYTLTISSLQPEDFATYYCVQYAQFPYTFGGGTKVEIKR | 2490 | 0.969 nM | 0.000784 s⁻¹ | 810000 M⁻¹ s⁻¹ | 0.06 nM
hu6L4H11 (antibody, human IgG1, kappa, V domains shown) VH: EVQLVQSGSELKKPGASVKVSCKASGYTFTDYYMNWVKQAPGQGLEWMGIINPYSGVTIYNHKFKGRFVLSVDKSSNTAYLQISSLKAEDTAVYYCARQDSLLDYAMDYWGQGTTVTVSS VL: DIQMTQSPSSLSASVGDRVTITCHASQGISGNMGWLQQKPGKAPKGLIYHGANLEDGVPSRFSGSGSGADYTLTISSLQPEDFADYYCVQYAQFPYTFGGGTKVEIKR | 2190 | 0.314 nM | 0.000672 s⁻¹ | 2.14e+06 M⁻¹ s⁻¹ | 0.07 nM
hu6L2H11 (antibody, human IgG1, kappa, V domains shown) VH: EVQLVQSGSELKKPGASVKVSCKASGYTFTDYYMNWVKQAPGQGLEWMGIINPYSGVTIYNHKFKGRFVLSVDKSSNTAYLQISSLKAEDTAVYYCARQDSLLDYAMDYWGQGTTVTVSS VL: DIQMTQSPSSLSASVGDRVTITCHASQGISGNMGWLQQKPGKAPKGLIYHGANLEDGVPSRFSGSGSGADYTLTISSLQPEDFATYYCVQYAQFPYTFGGGTKVEIKR | 1960 | 0.363 nM | 0.000749 s⁻¹ | 2.06e+06 M⁻¹ s⁻¹ | 0.04 nM
